{"source": "paper PMC5673899", "about": "“Structural basis for receptor recognition of pollen tube attraction peptides” (Nature Communications, 2017)", "key": {"AtPRK3^LRR": {"tested_on": "AtPRK3^LRR", "experiment": "Gel filtration assay with AtPRK3^LRR", "format": "binding, Arabidopsis", "conditions": "4 °C 30 min, 10 mM Bis-Tris pH 6.0, 100 mM NaCl", "from_the_text": "(§1) The genes of AtPRK3 ^LRR (residues 1–241), AtPRK4 ^LRR (residues 1–277), AtPRK5 ^LRR (residues 1–279), AtPRK6 ^LRR (residues 1–262), MIK1 ^LRR (residues 1–633), MIK2 ^LRR (residues 1–707) were amplified from Arabidopsis cDNA library by PCR and cloned into pFastBac-1 vector with a C-terminal 6 × His-tag. Their identities were confirmed by sequencing. The mature form of AtLURE1.1 (residues 20–94), AtLURE1.2 (residues 20–90), AtLURE1.3 (residues 21–91), and AtLURE1.4 (residues 20–90) were cloned into pFastBac-1 vector, with a modified N-terminal hemolin signal peptide and 6 × His-SUMO tag. Point mutation constructs were generated by QuickChange Site-Directed Mutagenesis Kit (Strategene). All the proteins were expressed using the Bac-to-Bac baculovirus expression system (Invitrogen) in High Five cells at 22 °C. One liter of High Five cells (2.0 × 10^6 cells mL^−1) cultured in the medium from Expression Systems was infected with 25 ml recombinant baculovirus and the media was collected after 72 h of infection. Secreted LRR proteins were purified using Ni-NTA (Novagen) and size-exclusion chromatography (Hiload 200, GE Healthcare) in buffer containing 10 mM Bis-Tris pH 6.0 and 100 mM NaCl. The His-SUMO tag of the AtLURE proteins was removed by Prescission Protease at 4 °C overnight in buffer containing 25 mM Tris pH 8.0 and 150 mM NaCl. […]"}, "MIK1^LRR": {"tested_on": "MIK1^LRR", "experiment": "Gel filtration assay with MIK1^LRR", "format": "binding, Arabidopsis", "conditions": "4 °C 30 min, 10 mM Bis-Tris pH 6.0, 100 mM NaCl", "from_the_text": "as §1"}, "[1]": {"tested_on": "semi-in-vivo pollen tubes", "experiment": "Gelatin-beads assay, wild-type semi-in-vivo pollen tubes", "format": "cell-based, Arabidopsis", "conditions": "gelatin beads containing 250 nM peptide", "protocol": "(§2) Attraction activities of mutant AtLURE1.2 peptides were examined for semi-in-vivo pollen tubes growing through cut, pollinated pistils by gelatin-beads assay and wavy assay, [20]. For the gelatin-beads assay, pollen tubes were grown on solid pollen germination medium poured into a mold made with 1-mm thick silicone rubber and cover glasses. After hand-pollination, the topside cover glass was removed and the medium was covered with hydrated silicone oil (KF-96–100CS; Shin-Etsu). Attraction of pollen tubes toward the peptide was evaluated using AtLURE1 peptide containing gelatine beads under an inverted microscope (IX71, Olympus) equipped with a micro-manipulator (Narishige). For the AtLURE1-responsive wavy assay, the purified AtLURE1.2 peptide was added to solid pollen germination medium, which was melted at 70 °C and then cooled to a certain degree. The mixture was mixed by vortexing and poured into the mold. Pollen tubes of each genotype were grown through cut styles, as mentioned above. Each peptide (25 μM in 10 mM Bis-Tris (pH 6.0) and 100 mM NaCl) was diluted to 250 nM by cultivation medium in both assays. To examine reactivity of PRK6 mutants to AtLURE1.2, constructs for PRK6 mutants, D234A, N239A, and ΔN239I240, were generated by site-directed mutagenesis from a wild-type PRK6 vector, pPZP221-pPRK6::PRK6-mRuby2 (ref. [20]). Wild-type and mutant PRK6 constructs were introduced into prk6–1 plant. After transformants were selected by the same criteria as previously, beads assay and wavy assay were performed in several T1 lines and single T2 line, respectively, for each genotype using 250 nM wild-type AtLURE1.2 peptide."}, "[2]": {"tested_on": "prk6 pollen tubes transformed with PRK6 of wild-type", "experiment": "Wavy assay, prk6 pollen tubes transformed with wild-type PRK6", "format": "cell-based, Arabidopsis", "conditions": "250 nM wild-type AtLURE1.2 in medium", "protocol": "as §2, with “To examine reactivity of PRK6 mutants to AtLURE1.2, constructs for PRK6 mutants, D234A, N239A, and ΔN239I240, were generated by site-directed mutagenesis from a wild-type PRK6 vector, pPZP221-pPRK6::PRK6-mRuby2 (ref. [20]). Wild-type and mutant PRK6 constructs were introduced into prk6–1 plant. After transformants were selected by the same criteria as previously, beads assay and wavy assay were performed in several T1 lines and single T2 line, respectively, for each genotype using 250 nM wild-type AtLURE1.2 peptide.” left out\n(§3) pollen tubes. Fluorescence is from mRuby2 fused to the C-terminal of PRK6 receptors, showing that all of mutant PRK6 receptors localize normally to the plasma membrane of the pollen tube tip. […]"}, "[3]": {"tested_on": "prk6 pollen tubes transformed with PRK6 N239A", "experiment": "Wavy assay, prk6 pollen tubes transformed with N239A PRK6", "format": "cell-based, Arabidopsis", "conditions": "250 nM wild-type AtLURE1.2 in medium", "protocol": "as §2, with “To examine reactivity of PRK6 mutants to AtLURE1.2, constructs for PRK6 mutants, D234A, N239A, and ΔN239I240, were generated by site-directed mutagenesis from a wild-type PRK6 vector, pPZP221-pPRK6::PRK6-mRuby2 (ref. [20]). Wild-type and mutant PRK6 constructs were introduced into prk6–1 plant. After transformants were selected by the same criteria as previously, beads assay and wavy assay were performed in several T1 lines and single T2 line, respectively, for each genotype using 250 nM wild-type AtLURE1.2 peptide.” left out\nas §3"}}, "note": "Entries after “also recorded” stand apart in the source; their conditions may differ.", "data": [{"molecule": "AtLURE1.2: mature form of AtLURE1.2 (residues 20–90), defensin-like cysteine-rich peptide expressed in insect cells (protein, left off: His6, N-terminal, cleaved | SUMO, N-terminal, cleaved, mature form of AtLURE1.2 (residues 20–90), defensin-like cysteine-rich peptide expressed in insect cells) TLINGSSDEERTYSFSPTTSPFDPRSLNQELKIGRIGYCFDCARACMRRGKYIRTCSFERKLCRCSISDIK", "values": [{"measurement": "interaction in gel filtration", "setting": "AtPRK3^LRR", "value": "none of the purified AtPRK3^LRR, MIK1^LRR or MIK2^LRR proteins showed detectable interaction"}, {"measurement": "interaction in gel filtration", "setting": "MIK1^LRR", "value": "no interaction; also recorded: none of the purified AtPRK3^LRR, MIK1^LRR or MIK2^LRR proteins showed detectable interaction"}, {"measurement": "pollen tube attraction activity (in words)", "setting": "[1]; Tukey−Kramer test, P < 0.05", "value": "efficiently attracted pollen tubes"}, {"measurement": "attraction frequency of pollen tubes", "setting": "[1]; mean ± SD, 9–16 pollen tubes per assay, 3−5 assays", "value": "94 ± 7", "unit": "%"}, {"measurement": "wavy and branched pollen tube behavior", "setting": "[2]", "value": "severe wavy and branched behavior"}, {"measurement": "wavy and branched pollen tube behavior", "setting": "[3]", "value": "severe wavy and branched behavior; also recorded: comparable reactivity to the wild-type PRK6"}]}]}
